The values below come from patent US20220016257A1 (Daiichi Sankyo, published 2022).

Test [1] concerns the target T1, human CDH6 (full-length, on cells) (human, UniProt P55285 54-790).
T1 construct: also called hCDH6; full-length hCDH6
T1 sequence: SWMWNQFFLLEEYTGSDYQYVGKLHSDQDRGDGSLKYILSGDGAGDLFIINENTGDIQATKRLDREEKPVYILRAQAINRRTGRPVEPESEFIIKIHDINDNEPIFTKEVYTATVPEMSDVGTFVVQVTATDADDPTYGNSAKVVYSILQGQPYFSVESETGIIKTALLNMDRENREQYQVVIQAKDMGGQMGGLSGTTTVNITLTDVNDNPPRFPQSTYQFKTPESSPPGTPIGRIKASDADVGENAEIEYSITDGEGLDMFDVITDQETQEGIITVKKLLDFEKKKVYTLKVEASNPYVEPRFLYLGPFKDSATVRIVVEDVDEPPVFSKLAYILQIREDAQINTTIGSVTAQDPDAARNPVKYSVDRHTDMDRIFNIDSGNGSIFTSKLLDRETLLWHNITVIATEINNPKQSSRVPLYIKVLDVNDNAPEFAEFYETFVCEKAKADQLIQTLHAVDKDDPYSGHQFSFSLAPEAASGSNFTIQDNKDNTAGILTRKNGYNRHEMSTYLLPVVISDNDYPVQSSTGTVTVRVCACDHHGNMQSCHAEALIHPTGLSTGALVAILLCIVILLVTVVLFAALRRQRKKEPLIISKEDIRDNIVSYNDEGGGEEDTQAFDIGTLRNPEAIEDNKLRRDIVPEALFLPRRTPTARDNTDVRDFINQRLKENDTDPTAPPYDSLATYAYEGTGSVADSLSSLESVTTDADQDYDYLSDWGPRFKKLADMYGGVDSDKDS
Description: competition flow cytometry on 786-O/hCDH6 cells, unlabeled antibody varied, competitor Alexa488-labeled NOV0712 at 5 nM [upper panel]. The procedure:
The cell suspension of the 786-O/hCDH6 stably expressing cell line produced in 6)-2-2-1 was centrifuged, and the supernatant was then removed. Thereafter, the cells were suspended by the addition of labeled NOV0712 or labeled H01L02 (final concentration: 5 nM) and, further, the addition of each of the 4 humanized hG019 antibodies (clone Nos: H01L02, H02L02, H02L03 and H04L02), which had been prepared in Example 5)-5-3, or the anti-CDH6 antibody NOV0712, which had been prepared in Reference Example 1, or human IgG1 (Calbiochem) as a negative control (final concentration: as shown in the abscissa of FIG. 7). The cells were left standing at 4° C. for 1 hour. Thereafter, the cells were washed twice with PBS supplemented with 5% FBS, followed by detection using a flow cytometer (Canto II; BD Biosciences). The data was analyzed using FlowJo (TreeStar, Inc.). The abscissa depicts the final concentration of the added unlabeled antibody, and the ordinate depicts the amount of the antibody bound based on mean fluorescence intensity. When unlabeled NOV0712 is added to cells supplemented with labeled NOV0712, the amount of the labeled antibody bound is decreased by replacement with the unlabeled antibody in an addition concentration-dependent manner because they compete with each other for binding to the same epitope. […]
(In general: Flow cytometry measures light scatter and fluorescence of single cells or particles in a stream.)

Test [2] addresses T2, EC5-deleted human CDH6 (EC5 deletion mutant, on cells) (human, UniProt P55285 54-790).
T2 construct: Full-length human CDH6 lacking EC5; Cloned in p3xFLAG-CMV-9; also called EC5-deleted hCDH6
T2 sequence: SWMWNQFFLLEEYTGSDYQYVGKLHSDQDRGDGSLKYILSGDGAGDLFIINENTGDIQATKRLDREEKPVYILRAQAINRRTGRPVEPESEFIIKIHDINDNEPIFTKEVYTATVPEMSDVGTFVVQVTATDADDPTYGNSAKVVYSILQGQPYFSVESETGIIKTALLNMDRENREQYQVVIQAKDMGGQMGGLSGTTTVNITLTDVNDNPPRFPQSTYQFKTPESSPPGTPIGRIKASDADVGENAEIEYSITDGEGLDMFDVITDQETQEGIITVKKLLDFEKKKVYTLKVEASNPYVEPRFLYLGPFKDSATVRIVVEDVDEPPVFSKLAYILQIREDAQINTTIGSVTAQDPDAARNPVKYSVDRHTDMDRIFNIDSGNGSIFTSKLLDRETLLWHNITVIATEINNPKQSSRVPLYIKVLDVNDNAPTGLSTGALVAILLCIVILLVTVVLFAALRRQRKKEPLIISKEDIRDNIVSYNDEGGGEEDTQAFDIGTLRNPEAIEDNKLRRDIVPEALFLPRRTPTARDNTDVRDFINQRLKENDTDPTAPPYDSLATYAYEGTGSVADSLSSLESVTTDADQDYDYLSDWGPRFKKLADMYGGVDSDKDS
Description: flow cytometry, 293α cells transiently expressing EC5-deleted hCDH6 (open) against untransfected cells (shaded), APC anti-human IgG F(ab')2. The procedure:
Thereafter, the cells were suspended by the addition of each of the 4 humanized hG019 antibodies (clone Nos: H01L02, H02L02, H02L03 and H04L02), which had been prepared in Example 5)-5-3, or the anti-CDH6 antibody NOV0712, which had been prepared in Reference Example 1, or human IgG1 (Calbiochem) as a negative control. The cells were left standing at 4° C. for 1 hour. The cells were washed twice with PBS supplemented with 5% FBS, and then suspended by the addition of APC-anti-human IgG goat F(ab′)2 (Jackson ImmunoResearch Laboratories, Inc.) that had been 500-fold diluted with PBS supplemented with 5% FBS. The cells were left standing at 4° C. for 1 hour. The cells were washed twice with PBS supplemented with 5% FBS, followed by detection using a flow cytometer (Canto II; BD Biosciences). The data was analyzed using FlowJo (TreeStar, Inc.). In the histograms of FIGS. 5-1 to 5-6, the abscissa depicts APC fluorescence intensity indicating the amount of the antibody bound, and the ordinate depicts cell count. […] Fluorescence intensity is enhanced when the antibody binds to full-length hCDH6 or each EC domain deletion mutant on the cell surface. The human IgG1 control binds to none of the transfected cells.

B1: anti-CDH6 antibody NOV0712 (antibody, V domains shown)
VH: QVQLLESGGGLVQPGGSLRLSCAASGFTFSSHGMHWVRQAPGKGLEWVSVISGSGSNTGYADSVKGRFTISRDNSKNTLYLQMNSLRAEDTAVYYCARQWGSYAFDSWGQGTLVTVSS
VL: DIQMTQSPSSLSASVGDRVTITCRASQSISSYLNWYQQKPGKAPKLLIYAVSTLQSGVPSRFSGSGSGTDFTLTISSLQPEDFATYYCQQSGTFPPTTFGQGTKVEIKR
Take B1: the “IC50 (read off the curve)” value in test [1] was about 4 nM. The binding result in test [2] is listed as “no binding (tested: not given)”.
